From patent US9567576B2, “Strain expressing FRSA and method for producing ethanol using same” (SOGANG UNIVERSITY RESEARCH FOUNDATION, priority 2012, dated 2017)

Columns and labels:
[1] = target: Vibrio vulnificus FrsA, wild type, SEQ ID NO: 2, + phospho-IIA^Glc (Vibrio vulnificus, UniProt Q8DF91); test: FrsA pyruvate decarboxylation in the presence of phospho-IIA^Glc; assay type: biochemical
Text: (§1) Genomic DNA from V. vulnificus(3) was used as template and as primers Crrexp-F (5′-[…]-3′(SEQ ID NO: 13); BamHI restriction site is underlined) and Crrexp-R (5′-[…]-′3(SEQ ID NO: 14); PstI restriction site is underlined) are used to amplify crr gene of 522-bp in size encoding full length IIA^Glc. The amplified products were then digested with BamHI and PstI and cloned into a vector pQE30 to obtain pQE-crr. Phosphorylated and non-phosphorylated recombinant IIA^Glc proteins were overexpressed in E. coli JM109 in a medium comprising 1.0 mM phophoenolpyruvate or 1.0% glucose, respectively. […]
(§2) FrsA enzymatic analysis was performed in 50 mM sodium phosphate solution (pH 7.0) containing 1 mM DTT and various concentrations of pyruvate. […] The residual NADH in the reaction mixture was determined by measuring absorption at 340 nm. […] The amount of carbon dioxide dissolved in the reaction solution was quantified by spectrophotometry after the reaction solution was treated with 10 mM calcium hydroxide (10). Concentrations of the pyruvate and acetaldehyde in the cell lysates and reaction mixtures were determined using Pyruvate Assay Lit (BioVision, USA) and Acetaldehyde UV-method kit (Roche, USA), respectively according to the manufacturer's instruction. […]
(§3) Values of Km and Kcat were calculated as follows. […]

[2] = target: Vibrio vulnificus FrsA, wild type, SEQ ID NO: 2, + dephospho-IIA^Glc (Vibrio vulnificus, UniProt Q8DF91); test: FrsA pyruvate decarboxylation in the presence of dephospho-IIA^Glc; assay type: biochemical
Vibrio vulnificus FrsA, wild type, SEQ ID NO: 2, + dephospho-IIA^Glc, sequence (A0A3Q0L1G8 entry or part of it): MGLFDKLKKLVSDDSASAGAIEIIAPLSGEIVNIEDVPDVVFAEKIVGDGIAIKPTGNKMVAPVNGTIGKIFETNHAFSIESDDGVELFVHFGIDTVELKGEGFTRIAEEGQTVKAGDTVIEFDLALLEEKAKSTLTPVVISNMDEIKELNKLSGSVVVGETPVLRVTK
Vibrio vulnificus FrsA, wild type, SEQ ID NO: 2, + dephospho-IIA^Glc, sequence (Q8DF91 whole entry): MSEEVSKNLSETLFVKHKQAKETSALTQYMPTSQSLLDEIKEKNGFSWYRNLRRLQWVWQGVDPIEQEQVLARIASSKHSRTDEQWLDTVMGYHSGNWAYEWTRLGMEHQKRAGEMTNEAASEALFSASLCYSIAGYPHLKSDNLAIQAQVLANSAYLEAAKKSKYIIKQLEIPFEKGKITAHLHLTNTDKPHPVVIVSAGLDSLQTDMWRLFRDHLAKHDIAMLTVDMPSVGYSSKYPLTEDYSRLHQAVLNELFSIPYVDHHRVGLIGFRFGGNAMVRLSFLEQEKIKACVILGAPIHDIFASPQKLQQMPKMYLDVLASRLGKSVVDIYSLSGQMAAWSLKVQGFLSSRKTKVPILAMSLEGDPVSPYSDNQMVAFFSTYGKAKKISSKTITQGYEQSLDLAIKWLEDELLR
Text: as §1, §2, §3

[3] = tested on: CC(=O)C(=O)O; test: FrsA-catalysed pyruvate decarboxylation, ADH/NADH coupled acetaldehyde assay; assay type: biochemical, Vibrio vulnificus; conditions: other: wild-type FrsA, pH 7.0, 37° C., 1 nM FrsA
Method: FrsA enzymatic analysis was performed in 50 mM sodium phosphate solution (pH 7.0) containing 1 mM DTT and various concentrations of pyruvate. To measure the amount of acetaldehyde produced from pyruvate, 2 mM NADH and 3.7 U of […] was added to the FrsA reaction mixture (8). Cell lysates from wild-type E. coli and frsA mutants (9) were used in the range of 0.005 to 1 mg in amount. The acetaldehyde reaction was initiated by adding FrsA (1 nM) and incubated at 37° C. for 5 min and stopped by adding 50 mM potassium hydrogen phthalate buffer (pH3.0). The residual NADH in the reaction mixture was determined by measuring absorption at 340 nm. For CO2 measurement, FrsA enzyme reaction was performed in 50 mM Tris-HCl buffer (pH 7.0). The amount of carbon dioxide dissolved in the reaction solution was quantified by spectrophotometry after the reaction solution was treated with 10 mM calcium hydroxide (10). Concentrations of the pyruvate and acetaldehyde in the cell lysates and reaction mixtures were determined using Pyruvate Assay Lit (BioVision, USA) and Acetaldehyde UV-method kit (Roche, USA), respectively according to the manufacturer's instruction. To increase the sensitivity of the Acetaldehyde UV-method kit, the reaction mixture was additionally treated with dye (50 ml of 1.0% Tween 20 solution containing 40 mg iodonitrotetrazolium chloride and 10 mg phenazine methosulfate) followed by absorption measurement at 490 nm (11).
Values of Km and Kcat were calculated as follows. The concentration of reaction products were calculated in the mM unit from the absorption values which were obtained for a total of 1 min for each substrate concentration (S). Then initial reaction rate (Vo) for each concentration of the substrate was determined (here the unit is mM(product)/sec/mg(enzyme)). […] Keat value expressed in the unit of sec^−1 was calculated by changing the unit weight of the enzyme to the concentration in mM in the calculated Vmax (mM(product)/sec/mg(enzyme)).

Vibrio vulnificus FrsA, wild type, SEQ ID NO: 2, + phospho-IIA^Glc, sequence (Q8DF91 whole entry): as above
Vibrio vulnificus FrsA, wild type, SEQ ID NO: 2, + phospho-IIA^Glc, sequence (A0A3Q0L1G8 entry or part of it, further chain): as the sequence (A0A3Q0L1G8 entry or part of it) above

| Compound | Km [1] | Km [2] | Km [3] | kcat [3] | kcat/Km [3] |
| --- | --- | --- | --- | --- | --- |
| CC(=O)C(=O)O [pyruvate] | 390 ± 10 µM | 390 ± 30 µM |  |  |  |
| Vibrio vulnificus FrsA, wild type, SEQ ID NO: 2 (Vibrio vulnificus CMCP6) |  |  | 390 ± 20 µM | 1372 ± 11 s⁻¹ | 3.52e+06 ± 183000 M⁻¹ s⁻¹ |
